Data reported in paper PMC8990011.

Target: Bax, endogenous in HeLa cells (human (endogenous in HeLa)) (UniProt Q07812)
Sequence (Q07812 whole entry): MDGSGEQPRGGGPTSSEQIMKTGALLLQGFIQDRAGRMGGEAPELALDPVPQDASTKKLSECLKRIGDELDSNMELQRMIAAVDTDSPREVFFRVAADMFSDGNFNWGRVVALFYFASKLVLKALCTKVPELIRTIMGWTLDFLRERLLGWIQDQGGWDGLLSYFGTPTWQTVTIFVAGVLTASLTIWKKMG

- inhibition of cBid- and Bim-triggered Bax-pore formation in ANTS/DPX liposomes (100 nM Bax, 20 nM cBid or Bim, 8-500 nM Bcl-xL protein), IC50: 80 nM
Substance: 6xHis-Bcl-xL^K87D (from UniProt Q07817-1 1-233) (natural protein)
